Assay results: US20140241984A1

Tests used:
[1] = molecular target: α-synuclein fibrils (human), P37840; test: inhibition ELISA; fibrils against monomers; conditions: remark: other sources report otherwise
[2] = molecular target: α-synuclein fibrils (human), P37840; test: SPR, BIAcore X100; fibrils immobilised on CM5, mAb injected at 0.01-10 nM; conditions: remark: other sources report otherwise

| Fold Affinity to Fibrils [1] | Kd [2] | koff [2] | kon [2] | Binder |
| --- | --- | --- | --- | --- |
| 16600 fold | 127 pM | 0.00156 s⁻¹ | 1.23e+07 M⁻¹ s⁻¹ | Syn-F1 (antibody, V domains shown) VH: DVQLVESGGDLVQPGGSRKLSCAASGFTFSSFGMHWVRQAPEKGLEWVAYINSGSSTIYYADTVKGRFTISRDNPKNTLFLQMTSLRSEDTAMYYCARGNNPGTGYYYSMDYWGQGTSVTVSS VL: not shown |
| 3140 fold | 2690 pM | 0.00338 s⁻¹ | 1.26e+06 M⁻¹ s⁻¹ | Syn-F2 (antibody, IgG2a, V domains shown) VH: DVQLVESGGGLVQPGGSRKLSCAASGFTFSSFGMHWVRQAPEKGLEWVAYISSGSSTIYYADTVKGRFTISRDNPKNTLFLQMTSLRSEDTAMYYCARGNNPGTGYYYAMDYWGQGTSVTVSS VL: not shown |
| 12700 fold | 16 pM | 9.36e-05 s⁻¹ | 5.86e+06 M⁻¹ s⁻¹ | Syn-O1 (antibody, IgG2b, V domains shown) VH: EVQLVESGGGLVQPKGSLKLSCAASGFTFNTYAMHWVRQAPGKGLEWVARIRSKSSNYATYYADSVKDRFTISRDDSQSMLYLQMNNLKTEDTAMYYCVRPLKWYFDVWGTGTTVTVSS VL: QIVLTQSPAILSASPGEKVTMTCSASSTVNYMHWYQQKSGTSPKIWIYDTSKLASGVPARFSGSGSWTSYSLTISSMEAEDAATYYCQQWNSNPPTFGAGTKLELK |
| 11100 fold | 171 pM | 0.000379 s⁻¹ | 2.22e+06 M⁻¹ s⁻¹ | Syn-O3 (antibody, IgG1, V domains shown) VH: EVQLVESGGGLVQPKGSLKLSCAASGFTFNTYAMHWVRQAPGKGLEWVARIRSKSSNYATYYADSVKDRFTISRDDSQSMLYLQMNNLKTEDTAMYYCVRPLKWYFDVWGTGTTVTVSS VL: QIVLTQSPAILSASPGEKVTMTCSASSTVNYMHWYQQKSGTSPKIWIYDTSKLASGVPARFSGSGSWTSYSLTISSMEAEDAATYYCQQWNSNPPTFGAGTKLELK |
| 6930 fold | 138 pM | 0.000996 s⁻¹ | 7.24e+06 M⁻¹ s⁻¹ | Syn-O4 (antibody, IgG1, V domains shown) VH: EVQLVESGGGLVQPKGSLKLSCAASGFTFNTYAMHWVRQAPGKGLEWVARIRSKSSNYATYYADSVKDRFTISRDDSQSMLYLQMNNLKTEDTAMYYCVRPLKWYFDVWGTGTTVTVSS VL: QIVLTQSPAILSASPGEKVTMTCSASSTVNYMHWYQQKSGTSPKIWIYDTSKLASGVPARFSGSGSWTSYSLTISSMEAEDAATYYCQQWNSNPPTFGAGTKLELK |
| 27300 fold | 96.9 pM | 0.00127 s⁻¹ | 1.31e+07 M⁻¹ s⁻¹ | Syn-O2 (antibody, IgG1, V domains shown) VH: EVQLVESGGGLVQPKGSLKLSCAASGFTFNTYAMHWVRQAPGKGLEWVARIRSKSSNYATYYADSVKDRFTISRDDSQSMLYLQMNNLKTEDTAMYYCVRPLKWYFDVWGTGTTVTVSS VL: QIVLTQSPAILSASPGEKVTMTCSASSTVNYMHWYQQKSGTSPKIWIYDTSKLASGVPARFSGSGSWTSYSLTISSMEAEDAATYYCQQWNSNPPTFGAGTKLELK |
